Values joined by “and” are separate entries in the source; they are usually repeats but may differ in a detail not shown here. Equal entries are not always repeated.
Settings: Streptomyces sp. EC3, Thermal, DSC, reversible: yes
[1] = pH 7.5, Sodium phosphate 60 mM, transition: 3
[2] = pH 8.9, glycine-NaOH 60 mM, transition: 4

Chain of Endo-1,4-beta-xylanase wild type, Q56013 (Q56013 entry or part of it): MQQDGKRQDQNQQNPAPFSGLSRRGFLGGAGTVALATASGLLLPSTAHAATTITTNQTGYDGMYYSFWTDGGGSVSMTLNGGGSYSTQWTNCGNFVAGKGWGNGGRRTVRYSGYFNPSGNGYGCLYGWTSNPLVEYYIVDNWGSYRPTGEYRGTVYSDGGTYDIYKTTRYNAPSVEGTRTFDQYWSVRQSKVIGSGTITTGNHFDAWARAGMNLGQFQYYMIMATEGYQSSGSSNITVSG

## Endo-1,4-beta-xylanase wild type, Q56013
pH 3.6, Sodium phosphate 60 mM, transition: 4
  unfolding enthalpy (calorimetric): 66 kcal/mol and 84 kcal/mol and 108 kcal/mol
pH 4.1, Sodium phosphate 60 mM, transition: 3
  unfolding enthalpy (calorimetric): 57 kcal/mol and 100 kcal/mol
pH 6.3, Sodium phosphate 60 mM, transition: 4
  unfolding enthalpy (calorimetric): 100 kcal/mol and 150 kcal/mol and 223 kcal/mol
[1]
  Tm: 60.5 °C and 64 °C
  unfolding enthalpy (calorimetric): 99 kcal/mol and 200 kcal/mol
pH 7.5, Sodium phosphate 60 mM, transition: 4
  unfolding enthalpy (calorimetric): 93 kcal/mol and 137 kcal/mol and 187 kcal/mol
pH 8.9, glycine-NaOH 60 mM, transition: 3
  unfolding enthalpy (calorimetric): 72 kcal/mol and 136 kcal/mol
[2]
  Tm: 51.5 °C and 54.6 °C
  unfolding enthalpy (calorimetric): 118 kcal/mol and 157 kcal/mol

Reference: FireProtDB (doi:10.1021/bi00250a032)
